Test [1] has as its target T1, Bim1 (full-length) (S. cerevisiae, UniProt P40013 1-344).
T1 sequence (looked up): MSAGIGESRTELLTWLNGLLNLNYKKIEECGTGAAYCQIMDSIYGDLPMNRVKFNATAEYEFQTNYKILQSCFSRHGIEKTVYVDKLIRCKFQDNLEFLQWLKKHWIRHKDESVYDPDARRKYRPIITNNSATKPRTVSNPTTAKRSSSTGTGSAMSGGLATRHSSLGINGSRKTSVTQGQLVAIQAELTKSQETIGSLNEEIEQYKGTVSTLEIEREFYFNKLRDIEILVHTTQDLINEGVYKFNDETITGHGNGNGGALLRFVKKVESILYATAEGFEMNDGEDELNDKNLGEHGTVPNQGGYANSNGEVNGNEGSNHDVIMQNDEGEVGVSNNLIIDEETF
Put plainly: SEC-MALS. (Size exclusion chromatography separates by hydrodynamic size, large species first.)

The target of test [2] is T2, C-terminally green fluorescent protein–tagged Bim1 (S. cerevisiae, UniProt P40013 1-344).
T2 sequence (looked up): T1 sequence (looked up)
Description: AUC.

B1: Kar9 (full-length) (natural protein, S. cerevisiae, UniProt P32526 1-644, looked up)
chain: MDNDGPRSMTIGDDFQENFCERLERIHNTLHSINDCNSLNESTTSISETLLVQFYDDLENVASVIPDLVNKKRLGKDDILLFMDWLLLKKYMLYQFISDVHNIEEGFAHLLDLLEDEFSKDDQDSDKYNRFSPMFDVIEESTQIKTQLEPWLTNLKELLDTSLEFNEISKDHMDTLHKIINSNISYCLEIQEERFASPIRHTPSFTLEQLVKLLGTHTETTEPKVPKFSPAEDILSRKFLNLKKNIPPIEKSLTDILPQRIVQFGHRNITNITTLQTILQKKYELIMKDYRFMNSEFRELKVELIDKRWNILFINLNHELLYILDEIERLQSKLLTTKYTKDITIRLERQLERKSKTVSKTFNIIYRALEFSLLDAGVASKTNELAQRWLNIKPTADKILIKSSASNKIATSKKKIPKPKSLGFGRPNSVIGTITQDFQERVAINEGDSNKTPENSTTVALKGKKLGKALLQKMNIKPATSPNSSNAINPFFDPESPNKGKLILSSVPPLPYDETDETTLRVSRGENEKSPDSFITSRHENKVQITETPLMAKNKSVLDIEKDKWNHYRSLPSRIPIYKDKVVKVTVENTPIAKVFQTPPTKITTPNSQVWVPSTRRRTRLRPPTPLSQLLSPREGRLDKTPTY
For the molecule B1, the “stoichiometry N” value in test [1] and in test [2] was 1 Kar9 monomer per Bim1 dimer in each case.

(Values after paper PMC5170556 (Molecular Biology of the Cell, 2016).)
